Non-standard residues stand in square brackets, D forms with d. pS = N[C@@H](COP(=O)(O)O)C(=O)O

Results on two molecules are retold here after article PMC9067669, “Allostery in the dynamic coactivator domain KIX occurs through minor conformational micro-states” (PLoS Computational Biology, 2022).

Data set [1] deals with T1, KIX domain from mouse CBP, residues 586-672 (mouse, UniProt P45481 586-672).
T1 construct: the pRSETB vector may add further residues beside the His tag (surmise); also called apo KIX; Apo KIX(586-672); source: E. coli BL21 DE3, purified (HisTrap Ni IMAC, Source S ion exchange)
The data set can be described thus: differential scanning fluorimetry (DSF); 20 uM protein with 5X SYPRO orange, incubated with 1X TAD peptide at RT for 30 minutes; 25-95°C at 1°C/min; Tm is the maximum of the first derivative, dTm the difference between protein and protein + ligand. The settings on record: both partners purified.

Data set [2] has as its target T2, KIX_(I660V) (KIX domain from mouse CBP, residues 586-672, I660V) (mouse, UniProt P45481 586-672, I660V).
T2 construct: also called mutant KIX_(I660V); K_(I660V); source: E. coli BL21 DE3, purified (HisTrap Ni IMAC, Source S ion exchange)
Described as above. The settings on record: both partners purified.

T1 sequence (P45481 586-672): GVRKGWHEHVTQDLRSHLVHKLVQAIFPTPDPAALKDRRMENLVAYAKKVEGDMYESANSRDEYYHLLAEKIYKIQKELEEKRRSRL
T2 sequence (P45481 586-672 I660V): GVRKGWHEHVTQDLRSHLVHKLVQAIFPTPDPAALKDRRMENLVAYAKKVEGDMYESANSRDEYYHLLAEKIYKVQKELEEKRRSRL

B1: MLL(840-858) peptide (peptide)
peptide: Ac-DCGNILPSDIMDFVLKNTPY-NH2
notes: mixed lineage leukemia (MLL) transcription factor peptide, printed residues 840-858; last printed letter of the peptide, beyond the 19 residues of the stated range; source: synthetic peptide (HPLC purified, reduced with DTT, 98% purity)
For B1, in data set [1], the “increase in TM” value was 0.8 °C.

B2: pKID(119-147) peptide, phosphorylated kinase-inducible domain of CREB (peptide)
peptide: Ac-TDSQKRREILSRRP[pS]YRKILNDLSSDAPG-NH2
SMILES: CC[C@H](C)[C@H](NC(=O)[C@H](CCCCN)NC(=O)[C@H](CCCNC(=N)N)NC(=O)[C@H](Cc1ccc(O)cc1)NC(=O)[C@H](COP(=O)(O)O)NC(=O)[C@@H]1CCCN1C(=O)[C@H](CCCNC(=N)N)NC(=O)[C@H](CCCNC(=N)N)NC(=O)[C@H](CO)NC(=O)[C@H](CC(C)C)NC(=O)[C@@H](NC(=O)[C@H](CCC(=O)O)NC(=O)[C@H](CCCNC(=N)N)NC(=O)[C@H](CCCNC(=N)N)NC(=O)[C@H](CCCCN)NC(=O)[C@H](CCC(N)=O)NC(=O)[C@H](CO)NC(=O)[C@H](CC(=O)O)NC(=O)[C@@H](NC(C)=O)[C@@H](C)O)[C@@H](C)CC)C(=O)N[C@@H](CC(C)C)C(=O)N[C@@H](CC(N)=O)C(=O)N[C@@H](CC(=O)O)C(=O)N[C@@H](CC(C)C)C(=O)N[C@@H](CO)C(=O)N[C@@H](CO)C(=O)N[C@@H](CC(=O)O)C(=O)N[C@@H](C)C(=O)N1CCC[C@H]1C(=O)NCC(N)=O
notes: kinase-inducible domain of CREB, residues 119-147, phosphorylated; source: synthetic peptide (HPLC purified, >90% purity)
As for B2, the binding result in data set [2] and in data set [1] was “binds” in each case.
